Target: recombinant human IL-13 (human, UniProt P35225 35-146)
Experiment: cell-based or functional assay

Chain of recombinant human IL-13 (P35225 35-146 limits assumed): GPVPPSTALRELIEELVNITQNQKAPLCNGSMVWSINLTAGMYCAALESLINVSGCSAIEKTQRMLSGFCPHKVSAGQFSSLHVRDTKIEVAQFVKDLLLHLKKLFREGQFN

Row | HEK-IL-13 [nM] (IC50, STAT6 reporter) | Binder
1 | 0.0419 | BDG38.084 (antibody, V domains shown) VH: QMQLVESGGGVVQPGRSLRLSCAASGFAFRTYGMHWVRQAPGKGLEWVAVIWDDGSNTHYADSVKGRFTITRDNSKNTLNLQMNSLRAEDTAVYYCVRAPQWYLTAEAFDLWGQGTMVTVSS VL: SYVLTQPPSVSVAPGETATITCGGNLIGAYLVHWYQQKPGQAPVLVVYDDVDRPDRIPERFSGSNSGNTATLTISRVEAGDEADYYCQVWDHSTNTMVFGGGTKLTVL
2 | 0.0822 | BDG38.095 (antibody, V domains shown) VH: QMQLVESGGGVVQPGRSLTLSCAASGFEFRTYGMHWVRQAPGKGLEWVGVIWYDGSATHYADSVKGRFTITRDNSKNTLNLQMNSLRAEDTAVYYCVRAPQWYLTAEAFDLWGQGTMVTVSS VL: SYVLTQPPSVSVAPGQTATITCGGALIGSRLVHWYQQKPGQAPVLVVYDDSDRPSRIPERFSGSNIGNTATLTISRVEEGDEADYYCQVWDYYSDSYVFGGGTKLTVL
3 | 0.063 | BDG38.109 (antibody, V domains shown) VH: QMQLVESGGGVVQPGRSLRLSCAASGFEFRTYGMHWVRQAPGKGLEWVGVIWYDGSNTHYADSVKGRFTITRDNSKNTLNLQMNSLRAEDTAVYYCVRAPQWYLTAEAFDLWGQGTMVTVSS VL: SYILTQPPSVSVAPGQTATITCGGNLIGARLVHWYQQKPGQAPVLVIYDDSDRPSRIPERFSGSNIGNTATLTIERVEEGDEADYYCQVWDYSSNSYVFGGGTKLTVL
4 | 0.0486 | BDG38.088 (antibody, V domains shown) VH: QMQLVESGGGVVQPGRSLTLSCAASGFEFRTYGMHWVRQAPGKGLEWVGVIWYDGSNTHYADSVKGRFTITRDNSKNTLNLQMNSLRVEDTAVYYCVRAPQWYLTAEAFDLWGQGTMVTVSS VL: SYVLTQPPSVSVAPGETATITCGGNLIGARLVHWYQQKPGQAPVLVIYDDSDRPSRIPERFSGSNIGNTATLTISDVEAGDEADYYCQVWDYSSNTYVFGGGTKLTVL
5 | 0.0801 | BDG38.100 (antibody, V domains shown) VH: QMQLVESGGGVVQPGRSLRLSCAASGFEFRTYGMHWVRQAPGKGLEWVGVIWYDGSNTHYADSVKGRFTITRDNSKNTLNLQMNSLRVEDTAVYYCVRAPQWYLTAEAFDLWGQGTMVTVSS VL: SYVLTQPPSVSVAPGETARITCGGNLIGARLVHWYQQKPGQAPVLVIYDDSDRPSRIPERFSGSNIGNTATLTIERVEEGDEADYYCQVWDYYSNSYVFGGGTKLTVL
6 | 0.0601 | BDG38.099 (antibody, V domains shown) VH: QMQLVESGGGVVQPGRSLRLSCAASGFEFRTYGMHWVRQAPGKGLEWVGVIWYDGSNTHYADSVKGRFTITRDNSKNTLNLQMNSLRAEDTAVYYCVRAPQWYLTAEAFDLWGQGTMVTVSS VL: SYILTQPPSVSVAPGETARITCGGNLIGARLVHWYQQKPGQAPVLVIYDDSDRPSRIPERFSGSNIGNTATLTIEDVEEGDEADYYCQVWDYSSDSYVFGGGTKLTVL
7 | 0.0659 | BDG38.108 (antibody, V domains shown) VH: QMQLVESGGGVVQPGRSLRLSCAASGFEFRTYGMHWVRQAPGKGLEWVGVIWYDGSNTHYADSVKGRFTITRDNSKNTLNLQMNSLRAEDTAVYYCVRAPQWYLTAEAFDLWGQGTMVTVSS VL: SYILTQPPSVSVAPGETATITCGGNLIGARLVHWYQQKPGQAPVLVIYDDSDRPSRIPERFSGSNIGNTATLTISDVEEGDEADYYCQVWDYYSNSYVFGGGTKLTVL
8 | 0.0381 | BDG38.104 (antibody, V domains shown) VH: QMQLVESGGGVVQPGRSLTLSCAASGFEFRTYGMHWVRQAPGKGLEWVGVIWYDGSATHYADSVKGRFTITRDNSKNTLNLQMNSLRAEDTAVYYCVRAPQWYLTAEAFDLWGQGTMVTVSS VL: SYILTQPPSVSVAPGETATITCGGNLIGARLVHWYQQKPGQAPVLVIYDDSDRPSRIPERFSGSNIGNTATLTIEDVEEGDEADYYCQVWDYYSDSYVFGGGTKLTVL
9 | 0.0402 | BDG38.093 (antibody, V domains shown) VH: QMQLVESGGGVVQPGRSLTLSCAASGFEFRTYGMHWVRQAPGKGLEWVGVIWYDGSNTHYADSVKGRFTITRDNSKNTLNLQMNSLRAEDTAVYYCVRAPQWYLTAEAFDLWGQGTMVTVSS VL: SYVLTQPPSVSVAPGQTARITCGGNLIGARLVHWYQQKPGQAPVLVIYDDSDRPSRIPERFSGSNIGNTATLTIERVEEGDEADYYCQVWDYSADSYVFGGGTKLTVL
10 | 0.084 | BDG38.103 (antibody, V domains shown) VH: QMQLVESGGGVVQPGRSLRLSCAASGFEFRTYGMHWVRQAPGKGLEWVGVIWYDGSNTHYADSVKGRFTITRDNSKNTLNLQMNSLRVEDTAVYYCVRAPQWYLTAEAFDLWGQGTMVTVSS VL: SYVLTQPPSVSVAPGQTATITCGGNLIGARLVHWYQQKPGQAPVLVVYDDSDRPSRIPERFSGSNIGNTATLTISDVEEGDEADYYCQVWDYYSNSYVFGGGTKLTVL
11 | 0.0545 | BDG38.111 (antibody, V domains shown) VH: QMQLVESGGGVVQPGRSLTLSCAASGFEFRTYGMHWVRQAPGKGLEWVGVIWDDGSATHYADSVKGRFTITRDNSKNTLNLQMNSLRVEDTAVYYCVRAPQWYLTAEAFDLWGQGTMVTVSS VL: SYVLTQPPSVSVAPGETATITCGGALIGARLVHWYQQKPGQAPVLVVYDDSDRPSRIPERFSGSNIGNTATLTISRVEAGDEADYYCQVWDYYANSYVFGGGTKLTVL
12 | 0.0403 | BDG38.101 (antibody, V domains shown) VH: QMQLVESGGGVVQPGRSLRLSCAASGFEFRTYGMHWVRQAPGKGLEWVGVIWYDGSATHYADSVKGRFTITRDNSKNTLNLQMNSLRVEDTAVYYCVRAPQWYLTAEAFDLWGQGTMVTVSS VL: SYILTQPPSVSVAPGETATITCGGNLIGARLVHWYQQKPGQAPVLVIYDDSDRPSRIPERFSGSNIGNTATLTISRVEEGDEADYYCQVWDYSSNTYVFGGGTKLTVL
13 | 0.0284 | BDG38.113 (antibody, V domains shown) VH: QMQLVESGGGVVQPGRSLTLSCAASGFEFRTYGMHWVRQAPGKGLEWVGVIWYDGSNTHYADSVKGRFTITRDNSKNTLNLQMNSLRAEDTAVYYCVRAPQWYLTAEAFDLWGQGTMVTVSS VL: SYVLTQPPSVSVAPGETATITCGGNLIGARLVHWYQQKPGQAPVLVIYDDSDRPSRIPERFSGSNIGNTATLTIEDVEEGDEADYYCQVWDYSSDSYVFGGGTKLTVL
14 | 0.134 | BDG38.105 (antibody, V domains shown) VH: QMQLVESGGGVVQPGRSLTLSCAASGFEFRTYGMHWVRQAPGKGLEWVGVIWYDGSNTHYADSVKGRFTITRDNSKNTLNLQMNSLRVEDTAVYYCVRAPQWYLTAEAFDLWGQGTMVTVSS VL: SYVLTQPPSVSVAPGETATITCGGNLIGARLVHWYQQKPGQAPVLVIYDDSDRPSRIPERFSGSNIGNTATLTIERVEAGDEADYYCQVWDYYSNSYVFGGGTKLTVL
15 | 0.0562 | BDG38.121 (antibody, V domains shown) VH: QMQLVESGGGVVQPGRSLRLSCAASGFEFRTYGMHWVRQAPGKGLEWVGVIWYDGSNTHYADSVKGRFTITRDNSKNTLNLQMNSLRAEDTAVYYCVRAPQWYLTAEAFDLWGQGTMVTVSS VL: SYILTQPPSVSVAPGETATITCGGNLIGARLVHWYQQKPGQAPVLVIYDDSDRPSRIPERFSGSNIGNTATLTISRVEAGDEADYYCQVWDYSSNTYVFGGGTKLTVL
16 | 0.0236 | BDG38.085 (antibody, V domains shown) VH: QMQLVESGGGVVQPGRSLTLSCAASGFEFRTYGMHWVRQAPGKGLEWVGVIWYDGSNTHYADSVKGRFTITRDNSKNTLNLQMNSLRVEDTAVYYCVRAPQWYLTAEAFDLWGQGTMVTVSS VL: SYVLTQPPSVSVAPGETATITCGGNLIGARLVHWYQQKPGQAPVLVIYDDSDRPSRIPERFSGSNIGNTATLTIERVEAGDEADYYCQVWDYSSNSYVFGGGTKLTVL
17 | 0.0421 | BDG38.102 (antibody, V domains shown) VH: QMQLVESGGGVVQPGRSLRLSCAASGFEFRTYGMHWVRQAPGKGLEWVGVIWYDGSNTHYADSVKGRFTITRDNSKNTLNLQMNSLRAEDTAVYYCVRAPQWYLTAEAFDLWGQGTMVTVSS VL: SYVLTQPPSVSVAPGETATITCGGNLIGARLVHWYQQKPGQAPVLVVYDDSDRPSRIPERFSGSNIGNTATLTIEDVEAGDEADYYCQVWDYSSNTYVFGGGTKLTVL
18 | 0.075 | BDG38.089 (antibody, V domains shown) VH: QMQLVESGGGVVQPGRSLRLSCAASGFEFRTYGMHWVRQAPGKGLEWVGVIWYDGSATHYADSVKGRFTITRDNSKNTLNLQMNSLRVEDTAVYYCVRAPQWYLTAEAFDLWGQGTMVTVSS VL: SYILTQPPSVSVAPGETATITCGGNLIGARLVHWYQQKPGQAPVLVIYDDSDRPSRIPERFSGSNIGNTATLTISRVEEGDEADYYCQVWDHSSNHYVFGGGTKLTVL
19 | 0.0662 | BDG38.119 (antibody, V domains shown) VH: QMQLVESGGGVVQPGRSLRLSCAASGFEFRTYGMHWVRQAPGKGLEWVGVIWYDGSNTHYADSVKGRFTITRDNSKNTLNLQMNSLRAEDTAVYYCVRAPQWYLTAEAFDLWGQGTMVTVSS VL: SYILTQPPSVSVAPGETATITCGGNLIGARLVHWYQQKPGQAPVLVIYDDSDRPSRIPERFSGSNIGNTATLTISRVEEGDEADYYCQVWDYSSNTYVFGGGTKLTVL
20 | 0.0464 | BDG38.097 (antibody, V domains shown) VH: QMQLVESGGGVVQPGRSLRLSCAASGFEFRTYGMHWVRQAPGKGLEWLGVIWYDGSATHYADSVKGRFTITRDNSKNTLNLQMNSLRAEDTAVYYCVRAPQWYLTAEAFDLWGQGTMVTVSS VL: SYILTQPPSVSVAPGETATITCGGNLIGARLVHWYQQKPGQAPVLVIYDDSDRPSRIPERFSGSNIGNTATLTIERVEEGDEADYYCQVWDYYSDHYVFGGGTKLTVL
21 | 0.0989 | BDG38.114 (antibody, V domains shown) VH: QMQLVESGGGVVQPGRSLTLSCAASGFEFRTYGMHWVRQAPGKGLEWVGVIWYDGSNTHYADSVKGRFTITRDNSKNTLNLQMNSLRVEDTAVYYCVRAPQWYLTAEAFDLWGQGTMVTVSS VL: SYILTQPPSVSVAPGQTATITCGGNLIGARLVHWYQQKPGQAPVLVIYDDSDRPSRIPERFSGSNIGNTATLTIEDVEEGDEADYYCQVWDYSANSYVFGGGTKLTVL

Source: patent US20240059769A1 (BIOLOJIC DESIGN, published 2024)
